Experimental data published in the supplement of paper PMC12764529.
± gives the half width of the 95% confidence interval.

Legend:
[1] = folding stability dG unfold from trypsin proteolysis; higher = more stable
Method in brief: (§1)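 Designed mini-proteins (under 80 residues, no cysteine) in a PA-tagged cDNA display construct were digested with trypsin and chymotrypsin. Each protease was used at 11 concentrations (threefold dilutions) plus a no-protease condition, followed by sequencing. K50 was inferred by Bayesian fitting of sequencing counts, and unfolding free energy was derived against a sequence-predicted unfolded-state K50 and a shared folded-state K50, per protease or combined. Only designs with AlphaFold2 dimer inter-PAE above 15 were kept.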

[2] = folding stability dG unfold from chymotrypsin proteolysis; higher = more stable
Method in brief: as §1

[3] = folding stability dG unfold (combined trypsin and chymotrypsin); higher = more stable
Method in brief: as §1

## SAGGSDLKVQVNKDGNTIRIQLPDGKPIFEIPFYRYDPDDGKPLEPWTIRMRLDPDGNIKIEEITPSAGGSA [r2_362_TrROS]
[1]
  folding stability dG unfold: 1.77 ± 0.044 kcal/mol
[2]
  folding stability dG unfold: 1.45 ± 0.14 kcal/mol
[3]
  folding stability dG unfold: 1.68 ± 0.15 kcal/mol

## SAGGSDRVLVPAGPSDYDVLVVVTPGPGDLVGVDALVIHPDGTPLAVRGVLDPTTGGISPVAVDPLSAGGSA [r2_402_TrMRF]
[1]
  folding stability dG unfold: 0.28 ± 0.024 kcal/mol
[2]
  folding stability dG unfold: 0.243 ± 0.051 kcal/mol
[3]
  folding stability dG unfold: 0.258 ± 0.038 kcal/mol

## SAGGSDTVVLDFTVTVDGKPYTVRVTLTRNPPTGEITVPVEIESANPEDAVPAREVADALVERLLSSAGGSA [r2_259_TrMRF]
[1]
  folding stability dG unfold: 1.21 ± 0.028 kcal/mol
[2]
  folding stability dG unfold: 1.78 ± 0.075 kcal/mol
[3]
  folding stability dG unfold: 1.56 ± 0.076 kcal/mol

## SAGGSEEFELEFRVEAASPEEAEALAEEIRKRLEDLGLDVEVEAETLEPGAVVVRPRVRVDPETGRLDSAGG [r13_697_TrMRF]
[1]
  folding stability dG unfold: 0.126 ± 0.24 kcal/mol
[2]
  folding stability dG unfold: 1.29 ± 0.065 kcal/mol
[3]
  folding stability dG unfold: 0.956 ± 0.16 kcal/mol

## SAGGSEEIKKLLASGQLDEVIALLKKKGYENVTVTPDPRKPVVTINVTKTDPKTGKKKTTTITIPTGLSAGG [r13_359_JUSTAS]
[1]
  folding stability dG unfold: 3.62 ± 0.1 kcal/mol
[2]
  folding stability dG unfold: 4.03 ± 0.052 kcal/mol
[3]
  folding stability dG unfold: 3.92 ± 0.086 kcal/mol

## SAGGSEIKIEIKYDEETGELVVEITVPESEEEVKKLVEELKKLGVEKVEIVRDKKTKEYRIRVVFKSAGGSA [r2_358_TrROS_Hall]
[1]
  folding stability dG unfold: 3.28 ± 0.14 kcal/mol
[2]
  folding stability dG unfold: 4.98 ± 0.3 kcal/mol
[3]
  folding stability dG unfold: 4.82 ± 0.57 kcal/mol

## SAGGSEPEPLRVSEITDIKESVLPNGTLKATVTLKLPEKDEEVEIEVEASSEEEIEEAIEEIVKLESAGGSA [r2_248_JUSTAS]
[1]
  folding stability dG unfold: 0.678 ± 0.089 kcal/mol
[2]
  folding stability dG unfold: 0.0425 ± 0.35 kcal/mol
[3]
  folding stability dG unfold: 0.482 ± 0.21 kcal/mol

## SAGGSEVETVKVKIKVKIDGKVYEVEAEVEVFTDEDGRKVLRITLPDGRVVEIPLEDADKIEEIEVSAGGSA [r2_297_TrROS_Hall]
[1]
  folding stability dG unfold: 4.7 ± 0.19 kcal/mol
[2]
  folding stability dG unfold: 4 ± 0.11 kcal/mol
[3]
  folding stability dG unfold: 4.25 ± 0.087 kcal/mol

## SAGGSFEPKREIEITLPNGREIEVWRYPGEGQMWVKLRFPNNGQKVEIPVKSPEDAEDSLKKFLKNSAGGSA [r2_70_TrROS]
[1]
  folding stability dG unfold: -0.28 ± 0.29 kcal/mol
[2]
  folding stability dG unfold: -0.334 ± 0.35 kcal/mol
[3]
  folding stability dG unfold: -0.169 ± 0.25 kcal/mol

## SAGGSFPIADVKEVKVEAYPETNTAKVPFTFPNGVTAVADAYLDPVTGRPVLVVRTPDGRLVVLPLSAGGSA [r2_490_TrMRF]
[1]
  folding stability dG unfold: 1.43 ± 0.032 kcal/mol
[2]
  folding stability dG unfold: 1.15 ± 0.12 kcal/mol
[3]
  folding stability dG unfold: 1.3 ± 0.094 kcal/mol

## SAGGSFSVDVPPDATVEVEEKVKRPDGSEVHLKITITRLPTSGKVLVTVEDNPPEKGSTTKEEIVPLESAGG [r13_934_JUSTAS]
[1]
  folding stability dG unfold: -0.431 ± 0.38 kcal/mol
[2]
  folding stability dG unfold: 0.975 ± 0.068 kcal/mol
[3]
  folding stability dG unfold: 0.658 ± 0.28 kcal/mol

## SAGGSFVKIKVKFDNKPIEIPIPDFVQKVEGDYQTIVFPEGDADSVLKKLKEASKKIEIVKVEVVKPSAGGS [r8_490_TrMRF]
[1]
  folding stability dG unfold: -0.735 ± 0.24 kcal/mol
[2]
  folding stability dG unfold: 0.618 ± 0.13 kcal/mol
[3]
  folding stability dG unfold: 0.354 ± 0.12 kcal/mol

## SAGGSGGLRVELPFLLPDGYRVTLTVNPETGEITEIRVEPIDAVPPEPEVLPVVGFDPRYGVPLVLSAGGSA [r2_78_TrMRF]
[1]
  folding stability dG unfold: 1.12 ± 0.026 kcal/mol
[2]
  folding stability dG unfold: 0.344 ± 0.14 kcal/mol
[3]
  folding stability dG unfold: 0.812 ± 0.12 kcal/mol

## SAGGSGIDFDIEFHNNHITIDIYMYDPNGQPIFEMTMTIPIPPVPPPPVPEVKVDDPEEAKEAKNQSAGGSA [r2_332_TrROS]
[1]
  folding stability dG unfold: 0.751 ± 0.14 kcal/mol
[2]
  folding stability dG unfold: 2.35 ± 0.17 kcal/mol
[3]
  folding stability dG unfold: 1.89 ± 0.21 kcal/mol

## SAGGSGKEFEVEKAVFIPLPDDRKLIIVKTKTSIQIVEYNGEEWKLVATYPYKDVPKNPRELLKKKSAGGSA [r2_133_TrMRF]
[1]
  folding stability dG unfold: 0.454 ± 0.22 kcal/mol
[2]
  folding stability dG unfold: 1.13 ± 0.14 kcal/mol
[3]
  folding stability dG unfold: 0.929 ± 0.22 kcal/mol

## SAGGSGMKLEKEIEVEVDPSGVGAEAVKEAVRAELEKEGYKVKVEIEVSEEEEKLYVKLHVEIYELSAGGSA [r2_172_JUSTAS]
[1]
  folding stability dG unfold: 0.999 ± 0.064 kcal/mol
[2]
  folding stability dG unfold: 2.01 ± 0.14 kcal/mol
[3]
  folding stability dG unfold: 1.57 ± 0.19 kcal/mol

## SAGGSGMSFSITEEVVIPTPGPRTLLLLKTEGDIIIVERDGERLRPVKTVPRKEVPEEPEKLIEELSAGGSA [r2_133_JUSTAS]
[1]
  folding stability dG unfold: -1.07 ± 0.34 kcal/mol
[2]
  folding stability dG unfold: -0.243 ± 0.15 kcal/mol
[3]
  folding stability dG unfold: -0.434 ± 0.12 kcal/mol

## SAGGSGMTETIKLSDPKNGLSVTVTVTFDPATGSKSVTITVESSEEAKEKVKALLEEKGLPVTVTSSAGGSA [r2_30_JUSTAS]
[1]
  folding stability dG unfold: 0.716 ± 0.063 kcal/mol
[2]
  folding stability dG unfold: 1.55 ± 0.082 kcal/mol
[3]
  folding stability dG unfold: 1.27 ± 0.081 kcal/mol

## SAGGSGMVITIPVELPTPRTLTFTFYPETGTATVEVSPGVPAAEVRATVEEVFAAHGLKLNPITLLSAGGSA [r2_497_JUSTAS]
[1]
  folding stability dG unfold: 0.995 ± 0.02 kcal/mol
[2]
  folding stability dG unfold: 1.61 ± 0.075 kcal/mol
[3]
  folding stability dG unfold: 1.39 ± 0.066 kcal/mol

## SAGGSGPPVLVRLEVEVLGEPYTLTLPVPASLIHPSQRVRFRVRVVSVDPVNNRVTVRIESVELYPSAGGSA [r2_479_TrMRF]
[1]
  folding stability dG unfold: 2.75 ± 0.065 kcal/mol
[2]
  folding stability dG unfold: 3.018 ± 0.021 kcal/mol
[3]
  folding stability dG unfold: 2.98 ± 0.036 kcal/mol

## SAGGSGQKFEIDRMIHIPLPNGRMLYIMRMKNPIMIMEFNGDNFRPVATVPNDDIPPEIRDLIKKLSAGGSA [r2_133_TrROS]
[1]
  folding stability dG unfold: 1.95 ± 0.068 kcal/mol
[2]
  folding stability dG unfold: 2.25 ± 0.11 kcal/mol
[3]
  folding stability dG unfold: 2.27 ± 0.12 kcal/mol

## SAGGSGSSMSVSVSVTTSPVSVDPNKPVPIEVATTTTPVSSYDPVTGTSSTTTTTTTVPLGNPEAASAGGSA [r2_489_JUSTAS]
[1]
  folding stability dG unfold: 2.62 ± 0.081 kcal/mol
[2]
  folding stability dG unfold: 1.42 ± 0.044 kcal/mol
[3]
  folding stability dG unfold: 1.98 ± 0.051 kcal/mol

## SAGGSIEELAREKALEEHKKTGEKNYPFTFEFEIVSSYEFAPDGTPVASSEFPFKITLKFKLPPKKKSAGGS [r16_156_JUSTAS]
[1]
  folding stability dG unfold: 1.44 ± 0.024 kcal/mol
[2]
  folding stability dG unfold: 2.88 ± 0.069 kcal/mol
[3]
  folding stability dG unfold: 2.43 ± 0.12 kcal/mol

## SAGGSIETIAERARDLARELNPDDGKEYPITIEIRDPENNRPIRIKISVRYDPDGKIKKVKFTKFEPYSAGG [r13_770_TrROS]
[1]
  folding stability dG unfold: 1.03 ± 0.06 kcal/mol
[2]
  folding stability dG unfold: 1.04 ± 0.11 kcal/mol
[3]
  folding stability dG unfold: 1.06 ± 0.077 kcal/mol

## SAGGSIKVFESESTDPATGKVTTTTTTVTESSEEPTPEAAKNTPPGETTTTTTTTTTTSPVPPGTAASAGGS [r8_274_JUSTAS]
[1]
  folding stability dG unfold: 0.476 ± 0.057 kcal/mol
[2]
  folding stability dG unfold: 0.67 ± 0.022 kcal/mol
[3]
  folding stability dG unfold: 0.54 ± 0.14 kcal/mol

## SAGGSIRIYANNVEITDIEIGDDGYIEIKVRMRGPNGQPQEFTLMIRVVPPPPPPKVDPNDPDAKDSAGGSA [r2_368_TrROS]
[1]
  folding stability dG unfold: 2.51 ± 0.1 kcal/mol
[2]
  folding stability dG unfold: 3.5 ± 0.29 kcal/mol
[3]
  folding stability dG unfold: 3.08 ± 0.31 kcal/mol

## SAGGSITSTTTLPDGTTVTTTVLPSGVTVVTTSTLDPATGTVSTTTTTLPPSSATTTTTTTTVPPLTSAGGS [r16_230_JUSTAS]
[1]
  folding stability dG unfold: 3.18 ± 0.12 kcal/mol
[2]
  folding stability dG unfold: 2.16 ± 0.029 kcal/mol
[3]
  folding stability dG unfold: 2.58 ± 0.046 kcal/mol

## SAGGSIWIPIDSPEDVEEAIDFIQDFLAERGMPPGHDIKKIKVERMENGHYWVEIEFPGRKIYIWVSAGGSA [r2_120_TrROS]
[1]
  folding stability dG unfold: 2.62 ± 0.049 kcal/mol
[2]
  folding stability dG unfold: 4.02 ± 0.054 kcal/mol
[3]
  folding stability dG unfold: 3.65 ± 0.084 kcal/mol

## SAGGSKIHIPIDPESGNFRIKVYPPDEPKEVSIQFKDPDDPEEFMDRAIEEANEYANNGYRVEIEPSAGGSA [r2_118_TrROS]
[1]
  folding stability dG unfold: -0.52 ± 0.3 kcal/mol
[2]
  folding stability dG unfold: -0.278 ± 0.58 kcal/mol
[3]
  folding stability dG unfold: -0.668 ± 0.48 kcal/mol

## SAGGSKIKIVEVKKNEDGTVTVKVEVEINGKKYTIEARFETLEDGKKVMTLRITNENGEEIEIVLPSAGGSA [r2_376_TrROS_Hall]
[1]
  folding stability dG unfold: 3.45 ± 0.38 kcal/mol
[2]
  folding stability dG unfold: 5.22 ± 0.17 kcal/mol
[3]
  folding stability dG unfold: 5.12 ± 0.32 kcal/mol

## SAGGSKIPLDNIKVITIMYNPKEGMYWISIRFPNNGKEVVFPYEDAPKILEKFPEIKEIEVYPFPPSAGGSA [r2_159_TrROS]
[1]
  folding stability dG unfold: 2.25 ± 0.11 kcal/mol
[2]
  folding stability dG unfold: 2.76 ± 0.036 kcal/mol
[3]
  folding stability dG unfold: 2.59 ± 0.084 kcal/mol
